Experimental data from patent US20240409629A1.

Target: human CLDN18.1 (human) (UniProt P56856)
Experiment: FACS, U2OS-CLDN18.1 cells, antibody at 200 nM

- MFI: 6040
B1: IgG1 isotype control antibody (antibody, V domains shown)
VH: EVQLEQSGAELMKPGASVKISCKATGYTFTTYWIEWIKQRPGHSLEWIGEILPGSDSTYYNEKVKGKVTFTADASSNTAYMQLSSLTSEDSAVYYCARGDGFYVYWGQGTTLTVSS
VL: DIELTQSPATLSVTPGDSVSLSCRASQSISNNLHWYQQKSHESPRLLIKYTSQSMSGIPSRFSGSGSGTDFTLSINSVETEDFGVYFCQQSGSWPRTFGGGTKLDIKR
